Measured values as given in publication PMC12278352, “Characterization of DnaB–DnaG Interaction in M. tuberculosis Using Small‐Angle X‐ray Scattering‐Based Dissociation Assay” (Chembiochem, 2025).

B1: M. tuberculosis DnaG without the zinc-binding domain (DnaGΔZBD, amino acids 115-639) (domain or fragment)
chain: SRLLAANAAAAAFYAQALQSDEAAPARQYLTERSFDAAAARKFGCGFAPSGWDSLTKHLQRKGFEFEELEAAGLSRQGRHGPMDRFHRRLLWPIRTSAGEVVGFGARRLFDDDAMEAKYVNTPETLLYKKSSVMFGIDLAKRDIAKGHQAVVVEGYTDVMAMHLAGVTTAVASCGTAFGGEHLAMLRRLMMDDSFFRGELIYVFDGDEAGRAAALKAFDGEQKLAGQSFVAVAPDGMDPCDLRLKCGDAALRDLVARRTPLFEFAIRAAIAEMDLDSAEGRVAALRRCVPMVGQIKDPTLRDEYARQLAGWVGWADVAQVIGRVRGEAKRTKHPRLGRLGSTTIARAAQRPTAGPPTELAVRPDPRDPTLWPQREALKSALQYPALAGPVFDALTVEGFTHPEYAAVRAAIDTAGGTSAGLSGAQWLDMVRQQTTSTVTSALISELGVEAIQVDDDKLPRYIAGVLARLQEVWLGRQIAEVKSKLQRMSPIEQGDEYHALFGDLVAMEAYRRSLLEQASGDDLTA

What was measured:
[1] = molecular target: DnaG-binding domain of M. tuberculosis DnaB helicase (DnaBn, amino acids 23-166) (M. tuberculosis) (UniProt P9WMR3); assay: cross-linking; 4 μM DnaGΔZBD with DnaBn (0-15.9 μM), 0.045% glutaraldehyde, 40 mM HEPES pH 7.5, 150 mM NaCl, 10 mM MgCl2, 0.1 mM EDTA, 1 mM DTT, 25 min at 25 °C; SDS-PAGE, Coomassie
[2] = molecular target: DnaG-binding domain of M. tuberculosis DnaB helicase (DnaBn, amino acids 23-166) (M. tuberculosis) (UniProt P9WMR3); assay: SPR; DnaBn (2.4 μg) immobilised on a GLC chip by amine coupling; soluble DnaGΔZBD 0-600 nM, 30 μL/min; 25 °C; 40 mM HEPES pH 7.5, 200 mM NaCl, 0.1 mM EDTA, 1 mM DTT; steady-state fit; normalised to a BSA channel; three repeats
[3] = molecular target: the molecule itself; assay: cross-linking; 4 μM DnaGΔZBD with 0.011-0.25% glutaraldehyde, 40 mM HEPES pH 7.5, 150 mM NaCl, 1 mM DTT, 0.1 mM EDTA, 0.5% DMSO, 30 min at 25 °C; SDS-PAGE, Coomassie
SAXS = molecular target: the molecule itself; assay: SAXS

Row | Molecule | stoichiometry N [1] | Kd [2] | monomer:dimer ratio at 0.25% glutaraldehyde [3] | stoichiometry N (SAXS)
1 | DnaG-binding domain of M. tuberculosis DnaB helicase (DnaBn, amino acids 23-166) (from UniProt P9WMR3 23-166) (domain or fragment) | 2 | – | – | –
2 | B1 | – | 210 nM | ~1.5 monomer per dimer | 2
